This assay has as its target SARS-CoV-2 spike protein expressed on transfected HEK293T cells (UniProt P0DTC2). Kind of assay: flow cytometry on cells.

For “L-SIGN/Fc: extracellular domain of L-SIGN (amino acids 78–399) fused to the human IgG2 Fc domain (from UniProt Q9H2X3) EPN>QPD”, the response (% Fc binding (positive population)) was found to be 1.58.
